The target in this test is human OX40 (human) (UniProt P43489). In words: cell-based or functional assay.

From patent publication US20230220042A1 (SHANGHAI JIAO TONG UNIVERSITY SCHOOL OF MEDICINE, published 2023) come the findings set out here.

human OX40 (human), sequence (P43489 29-277): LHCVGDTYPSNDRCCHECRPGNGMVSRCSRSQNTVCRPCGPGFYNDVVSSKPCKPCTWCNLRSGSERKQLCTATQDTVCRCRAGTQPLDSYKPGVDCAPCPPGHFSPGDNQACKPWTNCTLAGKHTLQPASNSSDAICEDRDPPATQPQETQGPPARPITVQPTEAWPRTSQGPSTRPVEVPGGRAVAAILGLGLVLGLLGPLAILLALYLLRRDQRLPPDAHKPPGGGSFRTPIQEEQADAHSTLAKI

B1: anti-human OX40 antibody, human IgG2 Fc mutant Mut_2 (H268D/S298L/L328W) (antibody, name in EU numbering)
heavy: QVQLQESGPGLVKPSGTLSLTCAVSGGSISSSIWWSWVRQPPGKGLEWIGEIHHSGNTNCNPSLKSRVTISIDKSKNQFSLKLTSVTAADTAVYYCARAGTGTTLDYWGQGTLVTVSSASTKGPSVFPLAPCSRSTSESTAALGCLVKDYFPEPVTVSWNSGALTSGVHTFPAVLQSSGLYSLSSVVTVPSSNFGTQTYTCNVDHKPSNTKVDKTVERKCCVECPPCPAPPVAGPSVFLFPPKPKDTLMISRTPEVTCVVVDVSDEDPEVQFNWYVDGVEVHNAKTKPREEQFNLTFRVVSVLTVVHQDWLNGKEYKCKVSNKGWPAPIEKTISKTKGQPREPQVYTLPPSREEMTKNQVSLTCLVKGFYPSDIAVEWESNGQPENNYKTTPPMLDSDGSFFLYSKLTVDKSRWQQGNVFSCSVMHEALHNHYTQKSLSLSPGK
light: EIVLTQSPGTLSLSPGERATLSCRASQSVSGDYLAWYQQKLGQAPRLLIYGASIRATGIPDRFSGSGSGTDFTLTISKLEPEDFAVYYCQQYGSSPLTFGGGTKVEIKRTVAAPSVFIFPPSDEQLKSGTASVVCLLNNFYPREAKVQWKVDNALQSGNSQESVTEQDSKDSTYSLSSTLTLSKADYEKHKVYACEVTHQGLSSPVTKSFNRGEC
With B1, the Average increased factor of the activity over wild-type IgG2 of two experiments was 16.5; the Average relative activity of two experiments turned out to be 0.72; the Experiment 1 CFSE fluorescence intensity, 0.01 µg/ml was 685; the Experiment 1 CFSE fluorescence intensity, 0.1 µg/ml was 654. The Experiment 1 CFSE fluorescence intensity, 1 µg/ml stood at 677; the Experiment 1 average relative activity is 0.67; the Experiment 1 relative activity, 0.01 µg/ml is 0.65; the Experiment 1 relative activity, 0.1 µg/ml was 0.71. For the same molecule, the Experiment 1 relative activity, 1 µg/ml worked out at 0.66; the Experiment 2 CFSE fluorescence intensity, 0.1 µg/ml was determined as 1550; the Experiment 2 CFSE fluorescence intensity, 1 µg/ml is 1150; the Experiment 2 average relative activity turned out to be 0.8. This molecule returned an Experiment 2 relative activity, 0.1 µg/ml of 0.69 and an Experiment 2 relative activity, 1 µg/ml of 0.9.

B2: anti-human OX40 antibody, human IgG2 Fc mutant Mut_19 (V266L/S267E/H268S/E269V/P271C) (antibody, name in EU numbering)
heavy: QVQLQESGPGLVKPSGTLSLTCAVSGGSISSSIWWSWVRQPPGKGLEWIGEIHHSGNTNCNPSLKSRVTISIDKSKNQFSLKLTSVTAADTAVYYCARAGTGTTLDYWGQGTLVTVSSASTKGPSVFPLAPCSRSTSESTAALGCLVKDYFPEPVTVSWNSGALTSGVHTFPAVLQSSGLYSLSSVVTVPSSNFGTQTYTCNVDHKPSNTKVDKTVERKCCVECPPCPAPPVAGPSVFLFPPKPKDTLMISRTPEVTCVVVDLESVDCEVQFNWYVDGVEVHNAKTKPREEQFNSTFRVVSVLTVVHQDWLNGKEYKCKVSNKGLPAPIEKTISKTKGQPREPQVYTLPPSREEMTKNQVSLTCLVKGFYPSDIAVEWESNGQPENNYKTTPPMLDSDGSFFLYSKLTVDKSRWQQGNVFSCSVMHEALHNHYTQKSLSLSPGK
light: EIVLTQSPGTLSLSPGERATLSCRASQSVSGDYLAWYQQKLGQAPRLLIYGASIRATGIPDRFSGSGSGTDFTLTISKLEPEDFAVYYCQQYGSSPLTFGGGTKVEIKRTVAAPSVFIFPPSDEQLKSGTASVVCLLNNFYPREAKVQWKVDNALQSGNSQESVTEQDSKDSTYSLSSTLTLSKADYEKHKVYACEVTHQGLSSPVTKSFNRGEC
With B2, the Average increased factor of the activity over wild-type IgG2 of two experiments is 10.5; the Average relative activity of two experiments worked out at 0.46; the Experiment 1 CFSE fluorescence intensity, 0.01 µg/ml is 880; the Experiment 1 CFSE fluorescence intensity, 0.1 µg/ml came out at 735. In addition, the Experiment 1 CFSE fluorescence intensity, 1 µg/ml stood at 824; the Experiment 1 average relative activity came out at 0.42; the Experiment 1 relative activity, 0.01 µg/ml was 0.3; the Experiment 1 relative activity, 0.1 µg/ml is 0.56. Also, the Experiment 1 relative activity, 1 µg/ml amounted to 0.4; the Experiment 2 CFSE fluorescence intensity, 0.1 µg/ml stood at 2090; the Experiment 2 CFSE fluorescence intensity, 1 µg/ml stood at 1670; the Experiment 2 average relative activity amounted to 0.52. Also, the Experiment 2 relative activity, 0.1 µg/ml is 0.41 and the Experiment 2 relative activity, 1 µg/ml came out at 0.63.
